Data published in the nanobody polyreactivity screen of Harvey et al. (2022).

Test: yeast display, Sf9 membrane polyspecificity reagent, FACS + sequencing; frameworks hold sequencing errors
In short: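 A synthetic nanobody library was expressed on Saccharomyces cerevisiae BJ5465 by galactose induction for 36–48 hours. The library was stained for 1 hour at 4 °C with 10% biotinylated, detergent-solubilized Sf9 membrane reagent and enriched with streptavidin microbeads before FACS. Low and high (top ~1%) gates were set on anti-HA fluorescence for expression and streptavidin fluorescence for reagent binding, and each polyreactivity label reflects the gate of origin.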

Row | Sequence | polyreactivity (PSR sort gate)
1 | QVQLVESGGGLVQAGGSLRLSCAASGLIFYDNMGWYRQAPGKERELVAAISSSGGSTSYADSVKGRFTISRDNAKNTVYLQMNSLKPEDTAVYYCAADQYYYWYTHQSIGYDYWGQGTQVTVSS | low polyreactivity
2 | QVQLVESGGGLVQAGGSLRLSCAASGLIFYGNAMGWYRQAPGKERELVAAISRRGGRTYYADSVKGRFTISRDKAKNTVYLQMKSLKPEDTAVYYCAADVIYSGDYWGQGTQVTVSS | high polyreactivity
3 | QVQLVESGGGLVQAGGSLRLSCAASGLIFYINAMGWYRQAPGKERELVAVISGGGSTNYADSVKGRFTISRDNAKNTVYLQMNSLKPEDTAVYYCNARRSHSYRHYDYWGQGTQVTVSS | low polyreactivity
4 | QVQLVESGGGLVQAGGSLRLSCAASGLIFYKYAMGWYRQAPGKEREFVAAISGSGGSTYYADSVKGRFTISRDNAKNTVYLQMNSLKPEDTAVYYCAVRQRYGPARYDYWGQGTQVTVSS | high polyreactivity
5 | QVQLVESGGGLVQAGGSLRLSCAASGLIFYKYAMGWYRQAPGKERELVAAITSGGSTNYADSVKGRFTISRDNAKNTVYLQMNSLKPEDTAVYYCNADYHPYLVVRWWYPPVDYWGQGNQVTVSS | low polyreactivity
6 | QVQLVESGGGLVQAGGSLRLSCAASGLIFYRNALGWYRQEPGKERELVATISRRGGRTYYADSVKGRFTISRDNAKNTVYLQMNSLNPEDTAVYYCNADDYSSRGGYDSWGQGTQVTVSS | high polyreactivity
7 | QVQLVESGGGLVQAGGSLRLSCAASGLIFYRNAMGWYRQAPGKERELVAAISKNGGNTYYADSVKGRFTISRDNAKNTVFLQMNSLKTEDTAVYYCAARELYGPFGYWGQGTQVTVSS | high polyreactivity
8 | QVQLVESGGGLVQAGGSLRLSCAASGLIFYSNAMGWYRQAPGKERELVATISGSTGTTNYADSVKGRFTISRDNAKNTVYLQMNSLKPEDTAVYYCAAEWRRYEYADSWEYDYWGQGTQVTVSS | low polyreactivity
9 | QVQLVESGGGLVQAGGSLRLSCAASGLIFYSYAMGWYRQAHAKERELVAAITGGGSTNYADSVKGRFTISRDNAKNTVYLQMNSLKPEDTAVYYCAAQAYVEGVYRYDYWGQGTQVTVSS | low polyreactivity
10 | QVQLVESGGGLVQAGGSLRLSCAASGLIFYTYAMGWYRQAPGKERALVADINRSDGSTYYADSVKGRFTISRDNAKNTVYLQMNILKPEDTAVYYCAVVGPYYTRFGGRYYYWGQGTQVTVSS | low polyreactivity
11 | QVQLVESGGGLVQAGGSLRLSCAASGLIFYTYAMGWYRQAPGKERELVAAISYDGTRTYYADSVKGRFTISRDNAKNTVYLQMNSLKPEDTAVYYCTAAYRRGDDYWGQGTQVTVSS | high polyreactivity
12 | QVQLVESGGGLVQAGGSLRLSCAASGLIFYYYAMGWYRQAPGKEREFVAAINSSGDSTYYADSVKGRFTISRDNAKNTVYLQMNSLKPEDTAVYYCNVDWYLHEYDYWGQGTQVTVSS | low polyreactivity
13 | QVQLVESGGGLVQAGGSLRLSCAASGLIFYYYAMGWYRQAPGKEREFVAAISRSGGITRYADSVKGRFTISRDNAKNTVYLQMNSLKPEDTAVYYCAADAYPLTYDDYYWGQGTKVTVSS | high polyreactivity
14 | QVQLVESGGGLVQAGGSLRLSCAASGLIFYYYAMGWYRQAPGKERELVADIDRGGDTYYADSVKGRFTISRDNAKNTVYLQMNSLKPEDTAVYYGAAVDFYGYVPEFGYWGQGTQVTVSS | low polyreactivity
15 | QVQLVESGGGLVQAGGSLRLSCAASGLIFYYYTMGWYRQAPGKERELVAAITNGGRTNYADSVKGRFTISRDNAKNTVYLQMNSLKPEDTAVYYCNAVVHKYQRGPYYIKYDYWGQGTQVTVSS | high polyreactivity
16 | QVQLVESGGGLVQAGGSLRLSCAASGLIFYYYVMGWYRQAPGKERELVARISTSGGSTYYADSVKGRFTISRDNAKNTVYLQMNSLKPEDTAVYYCAARGYRQYGWDGYWGQGTQVTVSS | low polyreactivity

Row | Sequence | polyreactivity (PSR sort gate)
17 | QVQLVESGGGLVQAGGSLRLSCAASGLIIPFYAMGWYRQAPGKERELVAAISWSAGSTYYADSVKGRFTISRDNAKNTVYLQMNSLKPEDTADYYCATERNPADFYWGQGTQVTVSS | low polyreactivity
18 | QVQLVESGGGLVQAGGSLRLSCAASGLIIPFYAMGWYRQAPGKERELVAAISWSAGSTYYADSVKGRFTISRDNAKNTVYLQMNSLKPEDTAVYYCAATAYYYYDYDYWGQGTQVTVSS | low polyreactivity
19 | QVQLVESGGGLVQAGGSLRLSCAASGLIIRPYAMGWYRQAPGKERELVAAITSGGSTDYADSVKGRFTISRVNAKNSVYLQMYSRKPEDTAVYYCNGDIYPHDGYPWQGDYDYWGQGTQVTVSS | low polyreactivity
20 | QVQLVESGGGLVQAGGSLRLSCAASGLILGINAMGWYRQAPGKERELVAAISSSGGRTSYADSVKGRFTISRDNAKNTVYLQMNILKPEDTAVYYCAKRRTTYSHYDYWGQGTQVSVSS | low polyreactivity
21 | QVQLVESGGGLVQAGGSLRLSCAASGLILPDYAMGWYRQAPGKERELVAAISESAASTYYADSVKGRFTISRDNAKNTVYLQMNSLKPEDTAVYYCAAEVWCYSWYYWYYDGEYYWGQGTQVTVSS | high polyreactivity
22 | QVQLVESGGGLVQAGGSLRLSCAASGLILPYYAMGWYRQAPGKERELVAAISRTGGRTSYADSVKGRFTISRDNAKNTVYLQMNSLKPEDTAVYYCAAVGQSGGRRYDYWGQGTQVTVSS | high polyreactivity
23 | QVQLVESGGGLVQAGGSLRLSCAASGLILPYYAMGWYRQAPGTERELVAAISRTAGRTSYADSVKGRFTISRDNAKNTVYLQMNSLKPEDTAVYYCAAVGQSGGRRYDYWGQGTQVTVSS | high polyreactivity
24 | QVQLVESGGGLVQAGGSLRLSCAASGLILSDYAMGWYRQAPGKERELVATITSVGTTKYADSVKGRVTISRDNAKKTVYVQLHSLKPEDTAVYYCAAEFIRGYGESYDYWGQGTQVTVSS | low polyreactivity
25 | QVQLVESGGGLVQAGGSLRLSCAASGLILSGYTMGWYRPAPGKERELVAAISRSGGRTYYADSVKGRFTISRDNAKNTVYLQMNSLKPEDTAVYYCAAAKRTWRSDYWGQGTQVTVSS | high polyreactivity
26 | QVQLVESGGGLVQAGGSLRLSCAASGLILSSNAMGWYRQAPGKERELVAAITWDGDRTYADSVKGRFTISRDNAKNTVYLQMNSLKPEDTAVYYCAADKQYYWYDWSYVYWGQGTQVTVSS | low polyreactivity
27 | QVQLVESGGGLVQAGGSLRLSCAASGLILSSNARGWYRQAPGKETELVAAITWDGDRTYADSVKGRFTISRDNAKNTVYLQMNSLKPEDTAVYYCAAYPYYYYGYDYWGQGTQVTVSS | low polyreactivity
28 | QVQLVESGGGLVQAGGSLRLSCAASGLILYYYAMGWYRQAPGKERELVAAISRRDGDTYYADSVKGRFTISRDNAKNTVYLQMNSLKPEDTAVYYCAAERRWSWVVRDDYWGQGTQVTVSS | low polyreactivity
29 | QVQLVESGGGLVQAGGSLRLSCAASGLISYAYAMGWYRQAPGKERELVAAIRSSGSTYYADSVKGRFTISLDNAKNTVYLQMNSLKPEDTAVYYCAKRNPIKYYGGGYWGQGTQVTVSS | high polyreactivity
30 | QVQLVESGGGLVQAGGSLRLSCAASGLIVVHYAMGWYSQAPGKVREFVAAITWSGGSTYYADSVKGRFTISRDNAKNTVYLQMNSLKPEDTAVYYCAVDGFRPGTASFGYWGQGTQVTVSS | low polyreactivity
31 | QVQLVESGGGLVQAGGSLRLSCAASGLIVWYYAMGWYRQAPGKERELVATITSRGGSTYYADSVKGRFTISRDNAKNTVYLQMNSLKPEDTAVYYCARENPGDSYYDYWGQATQVTVSS | low polyreactivity
32 | QVQLVESGGGLVQAGGSLRLSCAASGLIYFYAMGWYRQEPGKERELVAAISSSGGRTYYADSVKGRFTISRDNAKNTVYLQMNSLKPEDTAVYYCAVVSSHYKGPGRNGYDYWGQGTQVTVSS | high polyreactivity
